Assay results as given in the supplement of paper PMC12042874.
± gives the uncertainty stated by the source.

assay: amyloid nucleation score (Sup35N fusion, yeast selection) (log enrichment); library NNK2; higher = more nucleation; inactive = no reads after selection
How it was run: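 On medium lacking adenine and uracil, psi-negative yeast expressing peptides of 20 random codons fused to Sup35N were grown 7 days at 30°C after a 24-hour induction with 100 μM copper sulfate. Illumina sequencing of input and output plasmid inserts gave the reads, and sequences under 100 input reads were excluded. The nucleation score is the DiMSum log enrichment of output over input reads, centred on the mode score of non-aggregating sequences.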

| Substance | amyloid nucleation score |
| --- | --- |
| LKTQWQSPWVQMV | -0.09 ± 0.48 |
| LKWVYLSSIALTFAPPRRLD | 3.63 ± 0.069 |
| LLADAVMWFTMGSEDHDCY | -0.531 ± 0.44 |
| LLASRWPRYLNSWRKSHVKV | -0.133 ± 1 |
| LLCNWSPTLRHYFMRWDLGC | -0.901 ± 0.36 |
| LLDACHLGNWTAGNGYYDRV | -0.531 ± 1.1 |
| LLDINSCRFDMVISDMDNCP | inactive |
| LLDMYNYTGIF | inactive |
| LLFLVCTSFNLDIQWNFALG | 4.76 ± 0.087 |
| LLFQVLPKMTSAPPSGWSTP | 0.547 ± 0.81 |
| LLGSYI | inactive |
| LLGTFYTS | -1 ± 1.1 |
| LLHYGGSFLAAKFRRMGFTM | -0.262 ± 0.56 |
| LLHYGGSFLAAKFRRMSCNE | 0.811 ± 0.66 |
| LLINLVPFWLILRHDYLIKF | 0.959 ± 0.74 |
| LLKVF | -1.01 ± 1.1 |
| LLLASAMWYGKLIRMRLLG | 0.659 ± 0.48 |
| LLLHSIQIYDMRR | 5.53 ± 0.089 |
| LLLLMWALGLLENLTTLHGF | -0.257 ± 0.47 |
| LLLNNLVYFSLRVYLLNFCL | -2.07 ± 0.62 |
| LLLTNVKW | inactive |
| LLMLVSFLIDDEAFSVFDLL | 0.672 ± 0.39 |

| Substance | amyloid nucleation score |
| --- | --- |
| LLRGRFGDSVSAVGFSGFCN | -0.502 ± 0.45 |
| LLSKFF | inactive |
| LLSRPTGQLVVPSQGLHFCY | 0.242 ± 0.61 |
| LLSSLVFVVNFFAKGLRWLT | -1.9 ± 0.62 |
| LLVKF | 0.641 ± 0.74 |
| LLVRTYKLMMFHSLGIG | -0.583 ± 1 |
| LLYIDLVVHVFQSGSSGRLL | 2.79 ± 0.083 |
| LLYNGVILLECGWYMVSVAS | -0.071 ± 0.29 |
| LMFCTRFSLYTGSWFWSSVT | 1.57 ± 0.18 |
| LMFWGCSGLRWLVVLSDNKA | 3.8 ± 0.097 |
| LMHSQCSFSNELYVDSEARG | 0.093 ± 0.38 |
| LMHWV | -0.94 ± 0.38 |
| LMKNEFSRYHTSCVVRGNSL | 0.334 ± 0.28 |
| LMRFSDVDY | inactive |
| LMSIVVKVVDSTIIIKCVFS | -0.667 ± 0.76 |
| LMTPVNSILLRLWCSIFLCF | 3.26 ± 0.12 |
| LMYCI | -0.211 ± 0.76 |
| LNFGMY | -0.772 ± 0.78 |
| LNGLDPSNAHMIYYLYTSYL | -1.25 ± 0.54 |
| LNICDLRPLV | -0.93 ± 0.76 |
| LNISYSAH | 0.264 ± 0.65 |
| LNLLNPWYSCKQSRVYNGYI | -1.31 ± 0.54 |

| Substance | amyloid nucleation score |
| --- | --- |
| LNMVMLICNLWDVPHPRYLP | 5.14 ± 0.052 |
| LNNRLVFSKVHGCRICNRRS | inactive |
| LNTMPRK | 0.004 ± 1.1 |
| LNVDGDRAGVYIVKVHDPVR | 0.027 ± 0.74 |
| LNVLKNT | 0.187 ± 0.24 |
| LNWFFLL | 0.937 ± 0.26 |
| LPDIFLSVYKLLVYKSLLPA | 0.073 ± 0.53 |
| LPILCTWLM | -0.347 ± 0.55 |
| LPLILV | 0.356 ± 0.8 |
| LQFLLLE | 3.38 ± 0.047 |
| LQKWYGDD | 1.58 ± 0.34 |
| LQRSHSWTQLPLCTSRLRLL | 0.294 ± 1.1 |
| LQVIHGSPRLRLYDYQRNNF | 7.482 ± 0.04 |
| LQYIY | -0.533 ± 0.78 |
| LRADLYCFACLNAPSC | 5.89 ± 0.091 |
| LRASWLYYFKSKVSFGCKGD | -0.405 ± 0.41 |
| LREGCVTLLS | 0.27 ± 0.36 |
| LRFYAFRLDALSLISKSGVQ | 1.08 ± 0.36 |
| LRFYERDILSILLFLMMMFV | -1.07 ± 0.63 |
| LRGGTLVDNNLSANNYVYEI | -0.967 ± 0.76 |
| LRLFNLKQKKNRKNWRMFAG | -0.979 ± 0.6 |
| LRLFSFIVMGHNGVKHLVLC | 0.011 ± 0.8 |

| Substance | amyloid nucleation score |
| --- | --- |
| LRMMYRFGVCYVLL | 0.399 ± 0.31 |
| LRPLIIPGSKRHCNTVL | -0.005 ± 0.79 |
| LRREGTYIRPCKDMYFGDSC | inactive |
| LRSPWLF | -0.687 ± 0.79 |
| LRTTGLHFSSRLMVFTLNWI | -0.237 ± 0.33 |
| LRVMYHFNQCQFSYLRDFGR | 8.38 ± 0.063 |
| LRVPIR | 0.077 ± 0.28 |
| LRYKGMRFLNWMRNLKWDGI | 0.022 ± 0.65 |
| LSCHSDITILHDYTNLLSFI | -0.007 ± 0.63 |
| LSFDEVTLVRAKFHGSVIRL | 4.86 ± 0.06 |
| LSGLVFIN | -0.053 ± 1 |
| LSHMFVTALIVIEKFCLTAL | 0.111 ± 0.39 |
| LSIQLTEHA | 2.13 ± 0.079 |
| LSIVKFI | 1.3 ± 0.12 |
| LSLALDRQELAVHLFVLTCY | 0.829 ± 0.57 |
| LSLLSFGISASFVV | -1.18 ± 0.41 |
| LSLMTSLRWIGHSSFIVSKP | -0.168 ± 0.79 |
| LSLWTIGISPVGYRLTNRHQ | -0.315 ± 1 |
| LSQCYSRLLVSTMKSH | 0.854 ± 0.14 |
| LSQQSSMLKDRITDICGDLL | 1.4 ± 0.33 |
